Numbering of substitutions follows the chain as printed.
How the values were obtained:
[1] = target: FGFR1 on NCI-H520 cells (human, UniProt P11362 22-822); assay: cell-based or functional assay
[2] = target: T1, FGFR1 D2 point mutant G93A (human, UniProt P11362 22-254); assay: SPR as in Example 1.8
T1 chain: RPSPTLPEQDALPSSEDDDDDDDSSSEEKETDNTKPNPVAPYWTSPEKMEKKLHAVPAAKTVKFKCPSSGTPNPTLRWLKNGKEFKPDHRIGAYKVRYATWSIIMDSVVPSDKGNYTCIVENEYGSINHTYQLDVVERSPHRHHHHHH
Procedure: (§1) Binding affinities of anti-FGFR1 antibodies to FGFR1 were measured by Surface Plasmon Resonance (SPR) using a GE Healthcare BIAcore 4000 instrument as follows. Goat anti-human Fc antibody (Jackson ImmunoResearch Laboratories #109-005-098) was first immobilized on BIAcore carboxymethylated dextran CM5 chip using direct coupling to free amino groups following the procedure described by the manufacturer. Antibodies were then captured on the CM5 biosensor chip to achieve approximately 200 response units (RU). Binding measurements were performed using the running HBS-EP+ buffer. A 2-fold dilution series of His-tagged FGFR1 proteins were injected at a flow rate of 30 μl/min at 25° C. Association rates (kₒₙ, per mol/s) and dissociation rates (koff, per s) were calculated using a simple 1:1 Langmuir binding model (Biacore 4000 Evaluation Software). The equilibrium dissociation constant (KD, mol) was calculated as the ratio of koff/kₒₙ.
(§2) To obtain a finer, residue-level mapping of the epitope and to complement the HD exchange data, molecular modelling and manual inspection of the crystal structure of FGFR1 [(Beenken et al. 2012); PDB record 3OJV] was used to select solvent exposed residues within and around the epitope identified by HD exchange. The selected residues were mutated either to alanine (large to small) or to glycine if the selected residue was alanine. In total 35 point mutants were designed, expressed and purified in HEK cells, and tested for binding to mAb #A08 using surface plasmon resonance as described in Example 1.8. The affinity of the antibody for wild-type and each mutant was determined and used to calculate the contribution of each epitope residue to the binding energy.

[3] = target: T2, FGFR1 D2 point mutant L53A (human, UniProt P11362 22-254); assay: SPR as in Example 1.8
T2 chain: T1 chain with L53A, A93G
Procedure: as §1, §2

[4] = target: T3, FGFR1 D2 point mutant A59G (human, UniProt P11362 22-254); assay: SPR as in Example 1.8
T3 chain: T1 chain with A59G, A93G
Procedure: as §1, §2

[5] = target: T4, FGFR1 D2 point mutant I91A (human, UniProt P11362 22-254); assay: SPR as in Example 1.8
T4 chain: T1 chain with I91A, A93G
Procedure: as §1, §2

[6] = target: T5, FGFR1 D2 point mutant H54A (human, UniProt P11362 22-254); assay: SPR as in Example 1.8
T5 chain: T1 chain with H54A, A93G
Procedure: as §1, §2

[7] = target: T6, FGFR1 D2 point mutant K65A (human, UniProt P11362 22-254); assay: SPR as in Example 1.8
T6 chain: T1 chain with K65A, A93G
Procedure: as §1, §2

[8] = target: T7, Human FGFR1-IIIc D3-His6 (human, UniProt P11362 254-376); assay: SPR (NBD indicates no binding detected)
T7 construct: also called D3 domain; F3FR1c-D3
T7 sequence: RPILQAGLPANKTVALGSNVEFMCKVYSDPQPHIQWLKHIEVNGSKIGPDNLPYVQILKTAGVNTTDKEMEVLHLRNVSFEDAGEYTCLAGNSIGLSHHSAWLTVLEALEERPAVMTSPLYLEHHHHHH

[9] = target: T8, Human FGFR1 D2-His6 (human, UniProt P11362 22-254); assay: ELISA, antibody titrated on FGFR1 Ig-D2, O.D. 450 nm [panel FGFR1 Ig-D2]
T8 construct: also called D2 domain; F3FR1c-D2
T8 sequence: T1 chain with A93G

[10] = target: T9, FGFR1 D2 point mutant A55G (human, UniProt P11362 22-254); assay: SPR; free energy change relative to wild-type D2
T9 chain: T1 chain with A55G, A93G
How it was run: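 Point mutants of FGFR1 D2, expressed in HEK cells, were tested by SPR against mAb #A08 captured via anti-human Fc to ~200 RU, in HBS-EP+ at 25° C. KD came from a 1:1 Langmuir fit (koff/kon), and ΔΔG was derived from the ratio of wild-type to mutant KD.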

FGFR1 on NCI-H520 cells, sequence (P11362 22-822): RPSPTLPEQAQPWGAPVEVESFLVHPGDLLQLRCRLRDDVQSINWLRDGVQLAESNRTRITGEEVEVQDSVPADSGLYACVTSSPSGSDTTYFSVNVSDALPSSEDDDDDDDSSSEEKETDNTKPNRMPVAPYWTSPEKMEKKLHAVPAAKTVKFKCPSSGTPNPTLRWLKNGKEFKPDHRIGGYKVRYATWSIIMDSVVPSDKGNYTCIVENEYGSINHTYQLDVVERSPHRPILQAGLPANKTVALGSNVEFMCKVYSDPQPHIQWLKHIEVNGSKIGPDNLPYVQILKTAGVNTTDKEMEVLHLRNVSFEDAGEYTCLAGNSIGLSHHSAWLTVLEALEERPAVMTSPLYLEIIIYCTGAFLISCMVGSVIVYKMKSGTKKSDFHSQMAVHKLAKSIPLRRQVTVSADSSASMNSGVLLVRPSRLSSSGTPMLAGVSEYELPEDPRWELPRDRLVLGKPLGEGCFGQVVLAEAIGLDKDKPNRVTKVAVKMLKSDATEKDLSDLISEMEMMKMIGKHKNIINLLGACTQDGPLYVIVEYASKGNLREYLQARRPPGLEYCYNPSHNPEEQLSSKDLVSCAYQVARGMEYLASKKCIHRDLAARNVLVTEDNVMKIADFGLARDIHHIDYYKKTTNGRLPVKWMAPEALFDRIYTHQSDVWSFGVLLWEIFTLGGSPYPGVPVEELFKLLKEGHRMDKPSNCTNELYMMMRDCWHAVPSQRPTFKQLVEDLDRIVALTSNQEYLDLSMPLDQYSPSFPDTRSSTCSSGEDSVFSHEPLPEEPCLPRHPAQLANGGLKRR

B1: mAb #A08 (antibody, V domains shown)
VH: EVQLQESGPGLVKPSGTLSLTCAVSGGSISSNNWWSWVRQPPGKGLEWIGEIYHSGSTSYNPSLKSRVTISVDKSKNQFSLKLNSVTAADTAVYYCARGTDWFDPWGQGTLVTVSS
VL: QAVLTQPPSVSVAPGQTARITCGGNNIGSESVHWYQQKPGQAPVLVVYDDSDRPSGIPERFSGSNSGNTATLTISRVEAGDEADYYCQVWDSTSDHRVFGGGTKLTVL
notes: Only variable domains are tied to the name mAb #A08 (hit); also called #A08 hit; mAb #08
**Q.** Which results are given for B1?
**A.** IC50, inhibition of P-FGFR1 in NCI-H520 cells, FGF1 stimulated [1]: 4 nM; IC50, inhibition of P-FGFR1 in NCI-H520 cells, FGF2 stimulated [1]: 200 pM; IC50, inhibition of P-FGFR1 in NCI-H520 cells, non-stimulated (hashtag: estimated IC50, poor fit) [1]: ~1000 nM; Kd [2]: 0.32 nM; Kd [3]: 0.29 nM; Kd [4]: 3.91 nM; Kd [5]: 0.19 nM; Kd [6]: 0.36 nM; Kd [7]: 0.18 nM; binding result [8]: no binding; EC50 (read off the curve) [9]: ~0.04 nM; ΔΔGmut [10]: 0.07 kcal/mol
